Results as given in US20090209433.

Target: VDAC from Yeast (voltage dependent anion selective channel), purified (UniProt P04840)

In the case of “bovine cytochrome c oxidase holoenzyme (crystal grade)”, the KM (µM) at VDAC 50 nM is reported as 28 µM, the KM (µM) at VDAC 100 nM is reported as 44 µM and the KM (µM) at VDAC 200 nM is reported as 59 µM. The VMAX (µM/min) at VDAC 50 nM was 132 µM/min, the VMAX (µM/min) at VDAC 100 nM was 199 µM/min and the VMAX (µM/min) at VDAC 200 nM was 224 µM/min. It also gave a VMAX/KM (1/min) at VDAC 50 nM of 4.7 min⁻¹, a VMAX/KM (1/min) at VDAC 100 nM of 4.5 min⁻¹ and a VMAX/KM (1/min) at VDAC 200 nM of 3.8 min⁻¹.
